This test deals with T1, His-FtsZ fusion protein (Streptococcus suis SC19, UniProt A0A0H3MXZ7 1-409).
T1 sequence (looked up): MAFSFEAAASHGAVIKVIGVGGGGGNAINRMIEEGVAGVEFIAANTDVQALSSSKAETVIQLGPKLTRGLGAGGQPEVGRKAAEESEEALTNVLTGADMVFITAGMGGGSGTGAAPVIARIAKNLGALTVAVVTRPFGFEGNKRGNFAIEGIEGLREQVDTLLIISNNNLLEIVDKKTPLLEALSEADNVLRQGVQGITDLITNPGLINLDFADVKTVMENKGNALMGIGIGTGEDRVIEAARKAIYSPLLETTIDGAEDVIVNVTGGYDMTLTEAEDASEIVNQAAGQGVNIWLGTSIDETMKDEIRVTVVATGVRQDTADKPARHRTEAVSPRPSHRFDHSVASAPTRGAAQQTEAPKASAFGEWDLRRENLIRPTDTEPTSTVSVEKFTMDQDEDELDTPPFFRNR
As to the kind of experiment: BLI.

This passage reports Kd results from paper PMC11956251 (BMC Microbiology, 2025).

B1: SepF labeled with biotin (natural protein, Streptococcus suis SC19, UniProt A4VTL1 1-187, looked up)
chain: MALKDTFKNLFNYFEVDEVNEVEEQADAYSMPNDRPKMRVANTTVAPVREQQPKVETRREARSESQLQRLHERQQELMTNNNEKEIVKTTIDIKFPKRYEDAPEMVNLLLDNASILIDFQYMSEQQARRCLDYLDGARSVLSGNLKKVSNTMWLLTPVNVTVNIEELRNAGTTTGVADSNFEFDIKR
modifications: biotin (biotin labeling kit; sites not stated)
In general, Kd refers to the constant that tells how readily two partners part at equilibrium. Regarding B1, the Kd was determined as 0.67 nM.
